US20250281611A1 (BIOSCEPTRE AUST, published 2025)

Assays:
[1] = biological target: T1, CD33 (UniProt P20138 18-364, limits assumed); experiment: flow cytometry, MOLM-13 cells, anti-His-FITC detection, ratio to no bridge
T1 construct: whole, on cells; also called Siglec-3; CD33 on MOLM-13 cells
Procedure: (§1) MOLM-13 cells were incubated with different CD33 BRIDGE variants at saturating concentrations. […] The MFI intensity correlates with the number of secondary antibodies bound to the CD33 BRIDGE variants that are only detected if they are bound to the MOLM-13 cells. MFI: median fluorescence intensity. BLItz: Bio-Layer interferometry (BLI) technology using HIS-tag identification tips. […] The higher the MFIR, the stronger the binding.

[2] = biological target: T2, nfP2X7 CAR 1; experiment: flow cytometry, CAR T cells, anti-His-FITC, EGFR+ over EGFR- cells
T2 construct: Expressed on T cells with truncated EGFR as marker gene; also called anti-nfP2X7 receptor CAR 1; nfP2X7 targeted CAR on EGFR+ T cells
Procedure: (§2) nfP2X₇ CAR T cells were incubated with different BRiDGE variants at saturating concentrations. […] The MFI intensity correlates with the number of secondary bound antibodies bound to the BRiDGEs that are only detected if they are bound to the CAR T cells. EGFR was used as a marker gene to detect the CAR expression. Thus, the EGFR+ T cell population was defined as the CAR expressing cells and the EGFR− T cell population was defined as the CAR negative subset. MFI: median fluorescence intensity. EGFR: epidermal growth factor receptor. BLItz: Bio-Layer interferometry (BLI) technology using HIS-tag identification tips. HIS-tag MFI Ratio: relative index that is calculated by the testing condition MFI divided by the control MFI, which corresponds to the MFI measured on EGFR+ T cells (defined as CAR positive cells) divided by the MFI measured on the EGFR− T cells (defined as CAR negative cells). […] The higher the MFIR, the stronger the binding.

[3] = biological target: T2, nfP2X7 CAR 1; experiment: flow cytometry, nfP2X7 CAR T cells (EGFR+), anti-His-FITC detection
Procedure: as §2

[4] = biological target: T2, nfP2X7 CAR 1; experiment: flow cytometry, CAR T cells, anti-His-FITC, EGFR+ MFI over background 0.4
Procedure: as §2

[5] = biological target: T1, CD33; experiment: flow cytometry, MOLM-13 cells, anti-His-FITC detection
Procedure: as §1

T1 sequence (P20138 18-364 limits assumed): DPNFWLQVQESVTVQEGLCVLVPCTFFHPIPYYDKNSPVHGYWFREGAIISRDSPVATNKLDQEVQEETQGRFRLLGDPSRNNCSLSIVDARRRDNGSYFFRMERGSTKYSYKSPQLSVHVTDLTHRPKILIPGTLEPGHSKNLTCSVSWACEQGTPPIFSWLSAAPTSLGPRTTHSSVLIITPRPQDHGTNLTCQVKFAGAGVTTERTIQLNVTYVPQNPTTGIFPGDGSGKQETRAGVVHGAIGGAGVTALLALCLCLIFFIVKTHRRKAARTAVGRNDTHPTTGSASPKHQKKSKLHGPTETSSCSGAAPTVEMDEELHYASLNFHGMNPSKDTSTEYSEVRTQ

Binder | MFIR HisTag FITC [1] | HisTag MFI Ratio of EGFR+/EGFR- [2] | MFI HisTag FITC in EGFR+ Population [3] | HisTag MFI Ratio (background 0.4) [4] | MFI HisTag FITC [5]
CD33 BRIDGE variant B1 (Fab, V domains shown, Lintuzumab-based Fab bridging molecule) VH: QVQLVQSGAEVKKPGSSVKVSCKASGYTFTDYNMHWVRQAPGQGLEWIGYIYPYNGGTGYNQKFKSKATITADESTNTAYMELSSLRSEDTAVYYCARGRPAMDYWGQGTLVTVSS VL: DIQMTQSPSSLSASVGDRVTITCRASESVDNYGISFMNWFQQKPGKAPKLLIYAASNQGSGVPSRFSGSGSGTDFTLTISSLQPDDFATYYCQQSKEVPWTFGQGTKVEIKR | 9.12 | 2.5 | 1.08 | 2.7 | 6.11
CD33 BRIDGE variant B3 (Fab, V domains shown, Lintuzumab-based Fab bridging molecule) VH: QVQLVQSGAEVKKPGSSVKVSCKASGYTFTDYNMHWVRQAPGQGLEWIGYIYPYNGGTGYNQKFKSKATITADESTNTAYMELSSLRSEDTAVYYCARGRPAMDYWGQGTLVTVSS VL: DIQMTQSPSSLSASVGDRVTITCRASESVDNYGISFMNWFQQKPGKAPKLLIYAASNQGSGVPSRFSGSGSGTDFTLTISSLQPDDFATYYCQQSKEVPWTFGQGTKVEIKR | 10.1 | 2.4 | 1.04 | 2.6 | 6.76
CD33 BRIDGE variant B2 (Fab, V domains shown, Lintuzumab-based Fab bridging molecule) VH: QVQLVQSGAEVKKPGSSVKVSCKASGYTFTDYNMHWVRQAPGQGLEWIGYIYPYNGGTGYNQKFKSKATITADESTNTAYMELSSLRSEDTAVYYCARGRPAMDYWGQGTLVTVSS VL: DIQMTQSPSSLSASVGDRVTITCRASESVDNYGISFMNWFQQKPGKAPKLLIYAASNQGSGVPSRFSGSGSGTDFTLTISSLQPDDFATYYCQQSKEVPWTFGQGTKVEIKR | 8.34 | 2.5 | 1.11 | 2.8 | 5.59
CD33 BRIDGE variant B7 (Fab, V domains shown, Lintuzumab-based Fab bridging molecule) VH: QVQLVQSGAEVKKPGSSVKVSCKASGYTFTDYNMHWVRQAPGQGLEWIGYIYPYNGGTGYNQKFKSKATITADESTNTAYMELSSLRSEDTAVYYCARGRPAMDYWGQGTLVTVSS VL: DIQMTQSPSSLSASVGDRVTITCRASESVDNYGISFMNWFQQKPGKAPKLLIYAASNQGSGVPSRFSGSGSGTDFTLTISSLQPDDFATYYCQQSKEVPWTFGQGTKVEIKR | 8.24 | 3 | 1.45 | 3.6 | 5.52
CD33 BRIDGE variant B4 (Fab, Lintuzumab-based Fab bridging molecule) light: GHNYTTRNILPGLNITSTFHKTSGSGKEPKSSDKTHTDIQMTQSPSSLSASVGDRVTITCRASESVDNYGISFMNWFQQKPGKAPKLLIYAASNQGSGVPSRFSGSGSGTDFTLTISSLQPDDFATYYCQQSKEVPWTFGQGTKVEIKRTVAAPSVFIFPPSDEQLKSGTASVVCLLNNFYPREAKVQWKVDNALQSGNSQESVTEQDSKDSTYSLSSTLTLSKADYEKHKVYACEVTHQGLSSPVTKSFNRGECHHHHHH heavy: QVQLVQSGAEVKKPGSSVKVSCKASGYTFTDYNMHWVRQAPGQGLEWIGYIYPYNGGTGYNQKFKSKATITADESTNTAYMELSSLRSEDTAVYYCARGRPAMDYWGQGTLVTVSSASTKGPSVFPLAPSSKSTSGGTAALGCLVKDYFPEPVTVSWNSGALTSGVHTFPAVLQSSGLYSLSSVVTVPSSSLGTQTYICNVNHKPSNTKVDKKVEPKSCHHHHHH | 8.25 | 3.1 | 1.68 | 4.2 | 5.53
